Source: publication PMC8307315

What was measured:
Experiment in all cases: SPR; Biacore 2000, CM4 chip; PSA amine-coupled, antibody or conjugate bound to it; 10 min into the dissociation phase 40 nM FcRn in 10 mM maleic acid (pH 6.0) flown over for 3 min; number of FcRn bound per antibody from the RUs at the end of the FcRn injection
[1] = target: hu5A10-DTPA, 6:1 chelator-to-antibody molar ratio
[2] = target: hu5A10-DOTA, 3:1 chelator-to-antibody molar ratio
[3] = target: hu5A10-DOTA, 6:1 chelator-to-antibody molar ratio
[4] = target: humanized 5A10 (hu5A10), unconjugated
[5] = target: hu5A10-DTPA, 12:1 chelator-to-antibody molar ratio
[6] = target: hu5A10-DTPA, 3:1 chelator-to-antibody molar ratio
[7] = target: hu5A10-DOTA, 12:1 chelator-to-antibody molar ratio

FcRn bound per antibody (FcRn per antibody) [1]: 1.9
FcRn bound per antibody (FcRn per antibody) [2]: 0.8
FcRn bound per antibody (FcRn per antibody) [3]: 0.5
FcRn bound per antibody (FcRn per antibody) [4]: 1.8
FcRn bound per antibody (FcRn per antibody) [5]: 1.7
FcRn bound per antibody (FcRn per antibody) [6]: 1.9
FcRn bound per antibody (FcRn per antibody) [7]: 0.1
Substance: neonatal fc-receptor (FcRn) (from UniProt P55899 24-297)
